PMC8095197 (bioRxiv, 2021)

Biological target: SARS-CoV-2 RBD (SARS-CoV-2, reference (Wuhan-Hu-1) …, UniProt P0DTC2)
Test: ELISA

B1: DH1047 IgG (antibody, V domains shown)
VH: QVQLVQSGAEVKKPGASVQVSCQASANTFTNHYIHWVRQAPGQGLEWMGIIYPTGGNTIYAQGFQGRVTMTRDTSLNTIYLELSSLRSEDTAVYYCARDVRVDDSWSGYDLLSGGTYFDYWGQGTLVTVSS
VL: not shown
Question: Does B1 bind?
Answer: binds
